Laboratory results published in patent publication US20050221459.

| Substance | Turnover numbers under the optimal substrate concentrations (Ras-CVLL (SEQ ID NO: 4)) [min⁻¹] | Turnover numbers under the optimal substrate concentrations (Ras-CVLS (SEQ ID NO: 3)) [min⁻¹] | substrate specificity characterized by enzymatic assays (Ras-CVLS (SEQ ID NO: 3)) |
| --- | --- | --- | --- |
| Wild-type GGTase-I used in the prenylation assay of Example 3 | 0.65 | – | – |
| W102T mutant of human FTase (W102β converted to threonine) | – | 0.59 | creating an FTase enzyme greatly preferring GGPP over FPP as its isoprenoid substrate without significantly altering Ca1a2X sequence specificity |
| Human protein farnesyltransferase (hFTase) | – | 1 | – |
